Experimental findings from doi:10.1101/2021.02.01.429088 (bioRxiv, 2021) are described below.

Usually stoichiometry N stands for a count of units in the complex or per binding partner.

Series [1] concerns the molecule itself. Kind of series: SEC. In general terms: SEC sorts molecules by how far they enter the pores of the column.
Series [2] concerns the molecule itself. In words: SEC. This is another data set of the same source.

Read-outs that look alike come from different tables or passages of the source.

B1: T3D σ1 Head (293-455), wild type (domain or fragment, mammalian orthoreovirus T3D (Dearing))
chain: GAMASPNLRYPIADVSGGIGMSPNYRFRQSMWIGIVSYSGSGLNWRVQVNSDIFIVDDYIHICLPAFDGFSIADGGDLSLNFVTGLLPPLLTGDTEPAFHNDVVTYGAQTVAIGLSSGGAPQYMSKNLWVEQWQDGVLRLRVEGGGSITHSNSKWPAMTVSYPRSFT
As to B1, in the series “SEC [1]”, the “stoichiometry N” value came to 3.

B2: T3D σ1 Tail-Body (25-291) (domain or fragment, mammalian orthoreovirus T3D (Dearing))
chain: GAMASKGLESRVSALEKTSQIHSDTILRITQGLDDANKRIIALEQSRDDLVASVSDAQLAISRLESSIGALQTVVNGLDSSVTQLGARVGQLETGLAELRVDHDNLVARVDTAERNIGSLTTELSTLTLRVTSIQADFESRISTLERTAVTSAGAPLSIRNNRMTMGLNDGLTLSGNNLAIRLPGNTGLNIQNGGLQFRFNTDQFQIVNNNLTLKTTVFDSINSRIGATEQSYVASAVTPLRLNSSTKVLDMLIDSSTLEINSSGQLTVRS
In the case of B2, the “stoichiometry N” value in “SEC [1]” was determined as 3.

B3: T3D σ1 Body-Head (170-455), wild type (domain or fragment, mammalian orthoreovirus T3D (Dearing))
chain: GAMAVTSAGAPLSIRNNRMTMGLNDGLTLSGNNLAIRLPGNTGLNIQNGGLQFRFNTDQFQIVNNNLTLKTTVFDSINSRIGATEQSYVASAVTPLRLNSSTKVLDMLIDSSTLEINSSGQLTVRSTSPNLRYPIADVSGGIGMSPNYRFRQSMWIGIVSYSGSGLNWRVQVNSDIFIVDDYIHICLPAFDGFSIADGGDLSLNFVTGLLPPLLTGDTEPAFHNDVVTYGAQTVAIGLSSGGAPQYMSKNLWVEQWQDGVLRLRVEGGGSITHSNSKWPAMTVSYPRSFT
Turning to B3, the “stoichiometry N” value in the series “SEC [2]” is 3.
